PMC6624267, “Structures of autoinhibited and polymerized forms of CARD9 reveal mechanisms of CARD9 and CARD11 activation” (Nature Communications, 2019)
Positions count from the first letter of the chain named. Names and notes keep the numbering of the source.

Experiments:
[1] = molecular target: the molecule itself; test: absorbance at 350 nm + other: negative-stain EM; CARD9^2−97 polymerisation: 1:1 Zn2+-bound CARD, EDTA added at t = 0; 50 mM Tris, 150 mM NaCl, 0.5 mM TCEP, pH 7.0, 25 °C, shaking; NS-EM grids at 90 min
[2] = molecular target: the molecule itself; test: negative-stain EM; CARD11^8−109 WT or mutants at 250 μM or 500 μM, 2 h at 25 °C, 50 mM HEPES, 50 mM NaCl, 0.5 mM TCEP, pH 7.0
[3] = molecular target: the molecule itself; test: NMR solution structure; CARD9^2−142 dimer, 1 mM with 1:1 ZnCl2, 50 mM HEPES, 300 mM NaCl, 0.5 mM TCEP, pH 7.0, 37 °C; intermolecular NOEs from a mixed labelled/unlabelled sample, RDCs
[4] = molecular target: the molecule itself; test: negative-stain EM; CARD9^2–152 constructs purified 1:1 with Zn2+, Zn2+ removed with a twofold excess of EDTA, incubated at the indicated concentration, time and temperature; 50 mM HEPES, 150 mM NaCl, 0.5 mM TCEP, pH 7.0; step: dimers to filaments

B1: CARD9^2−97 (CARD9 CARD alone), wild type (domain or fragment, human, UniProt Q9H257 2-97, looked up)
chain: SDYENDDECWSVLEGFRVTLTSVIDPSRITPYLRQCKVLNPDDEEQVLSDPNLVIRKRKVGVLLDILQRTGHKGYVAFLESLELYYPQLYKKVTGK
notes: CARD9, human, residues 2-97 (CARD); polymerisation started by EDTA; also called CARD9^2−97/WT; source: E. coli BL21(DE3), purified (Ni-NTA, TEV, Superdex 75); not shown: 6xHis, N-terminal, cleaved
[1]
  binding result: binds

B2: CARD9^2−97/D43R/K58D (domain or fragment, human, UniProt Q9H257 2-97, looked up)
chain: B1 chain with D42R, K57D
notes: CARD9, human, residues 2-97 (CARD); also called charge-swap mutant of the Type III interface; source: E. coli BL21(DE3), purified (Ni-NTA, TEV, Superdex 75; insoluble mutants under denaturing conditions); not shown: 6xHis, N-terminal, cleaved
[1]
  binding result: binds

B3: CARD11^8−109 (CARD11 CARD), wild type (domain or fragment, human, UniProt Q9BXL7 8-109, looked up)
chain: MDDYMETLKDEEDALWENVECNRHMLSRYINPAKLTPYLRQCKVIDEQDEDEVLNAPMLPSKINRAGRLLDILHTKGQRGYVVFLESLEFYYPELYKLVTGK
notes: CARD11 (CARMA1), human, residues 8-109 (CARD); also called WT CARD11 CARD; source: E. coli BL21(DE3), purified (Ni-NTA, TEV, Superdex 75); not shown: 6xHis, N-terminal, cleaved
[2]
  binding result: binds

B4: CARD9^2−142 (domain or fragment, human, UniProt Q9H257 2-142, looked up)
chain: SDYENDDECWSVLEGFRVTLTSVIDPSRITPYLRQCKVLNPDDEEQVLSDPNLVIRKRKVGVLLDILQRTGHKGYVAFLESLELYYPQLYKKVTGKEPARVFSMIIDASGESGLTQLLMTEVMKLQKKVQDLTALLSSKDD
notes: Isotope-labelled samples with 1:1 ZnCl2 for NMR; not shown: 6xHis, N-terminal, cleaved
[3]
  binding result: binds

B5: CARD9^2−152/L115I (domain or fragment, human, UniProt Q9H257 2-152, looked up)
chain: SDYENDDECWSVLEGFRVTLTSVIDPSRITPYLRQCKVLNPDDEEQVLSDPNLVIRKRKVGVLLDILQRTGHKGYVAFLESLELYYPQLYKKVTGKEPARVFSMIIDASGESGITQLLMTEVMKLQKKVQDLTALLSSKDDFIKELRVKDS
notes: not shown: 6xHis, N-terminal, cleaved
[4]
  binding result: binds
